Data taken from patent US20180236141A1.

Biological target: integrin α2β1 on platelets (UniProt P17301)
Assay: cell-based or functional assay

With Collagen type I (ligand) the platelet aggregation was greater than 90%.
